Molecular target: Biotinylated AF546-labeled BtuF (BtuF*), construct of the smFRET-Q experiments (E. coli)
Experiment: smFRET-Q

Chain of Wild type BtuCD reconstituted in nanodiscs (P06609 whole entry): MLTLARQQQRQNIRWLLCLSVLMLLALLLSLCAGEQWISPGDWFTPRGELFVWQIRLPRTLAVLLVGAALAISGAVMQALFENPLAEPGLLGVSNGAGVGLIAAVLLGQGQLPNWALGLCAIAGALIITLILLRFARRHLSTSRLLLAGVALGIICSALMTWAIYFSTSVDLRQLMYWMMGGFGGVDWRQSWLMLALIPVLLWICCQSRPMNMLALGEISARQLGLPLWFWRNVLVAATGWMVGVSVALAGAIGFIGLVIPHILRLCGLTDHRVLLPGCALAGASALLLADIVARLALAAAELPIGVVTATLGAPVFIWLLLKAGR
Chain of Wild type BtuCD reconstituted in nanodiscs (P06611 whole entry): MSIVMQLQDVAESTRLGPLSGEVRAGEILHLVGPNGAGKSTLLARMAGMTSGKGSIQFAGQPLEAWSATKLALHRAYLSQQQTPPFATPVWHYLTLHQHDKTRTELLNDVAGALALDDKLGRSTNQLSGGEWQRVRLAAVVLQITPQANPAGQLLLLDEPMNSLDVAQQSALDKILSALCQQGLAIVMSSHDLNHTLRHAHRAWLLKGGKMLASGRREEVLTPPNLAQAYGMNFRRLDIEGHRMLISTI

“Wild type BtuCD reconstituted in nanodiscs (from UniProt P06609 1-326; P06611 1-249) (complex)” showed an occupancy time of the H state (locked BtuCD-F* complex) with 0.5 mM Mg-ATP of 1 s.
